± gives the standard deviation of the averaged measurements.
The sequences below were run on Saccharomyces cerevisiae (assay: protein stability index of tFT-peptide fusion (C-terminal peptide) (PSI (0-1 scale)); higher = more stable (slower turnover)). Details: genetic background: wild type; temperature: 30 C.
Protocol: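 MPS profiling in S. cerevisiae of the tFT-X12 degron library: putative degron peptides plus stable controls, 12 aa, fused to the C-terminus of a sfGFP-mCherry timer. Cells are FACS-sorted into 8 mCherry/sfGFP bins and deep-sequenced. PSI runs from 0 (unstable) to 1 (stable). Backgrounds are wild type, das1Δ and doa10Δ at 30 °C, and wild type, das1Δ, cdc34-1 and cdc53-1 at 37 °C; 2-3 technical replicates each.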
APLSPLLPPFLC gave a protein stability index of 0.369 ± 0.05. Work on APPPLFLIVLHL yielded a protein stability index of 0.3 ± 0.011. Work on APTMAIIVVHVR yielded a protein stability index of 0.207 ± 0.036. Sequence ARKIGKVIPKLG has a protein stability index of 0.341 ± 0.039. With ASLSSSRPPLLP the protein stability index was 0.648 ± 0.014. Sequence ASLVGGVLLVVV has a protein stability index of 0.352 ± 0.022. Sequence AWPGRLWYFWLA has a protein stability index of 0.215 ± 0.025. In the case of AYCGGRNKCTTE, the protein stability index is reported as 0.643 ± 0.011. AYVAPRRALMCS gave a protein stability index of 0.281 ± 0.018. CEERVKSRLKQN was tested, and the protein stability index was 0.18 ± 0.031. For CFCLFVFFISSC, the protein stability index was 0.233 ± 0.019. Sequence CFCSFQFVRLWV has a protein stability index of 0.444 ± 0.011. Work on CFFFPCFSFRFL yielded a protein stability index of 0.296 ± 0.011. For CFFICGVFVFLM, the protein stability index was 0.244 ± 0.034. CFFILSLMVVVI gave a protein stability index of 0.0999 ± 0.03. In the case of CFFLSFNVFRLF, the protein stability index is reported as 0.114 ± 0.033. Work on CFVISVLFFFVG yielded a protein stability index of 0.286 ± 0.013. CFVLVVCIPVMV gave a protein stability index of 0.207 ± 0.024. Work on CFVQVGGLVKIS yielded a protein stability index of 0.293 ± 0.036. CFVSFLHLLYFS showed a protein stability index of 0.296 ± 0.024. Sequence CGFVCGLCLCRV has a protein stability index of 0.381 ± 0.031. CGFVFFVLVVFW gave a protein stability index of 0.114 ± 0.025. Sequence CGQIAFLGIAVK has a protein stability index of 0.323 ± 0.029. CGWFVSVGWRLG was tested, and the protein stability index was 0.305 ± 0.035. CHFLLHYVFLLS gave a protein stability index of 0.267 ± 0.024. In the case of CHPIPLARLAPT, the protein stability index is reported as 0.666 ± 0.014. For CKKATILRIKSM, the protein stability index was 0.19 ± 0.031. Sequence CLCYFLFYFLFV has a protein stability index of 0.442 ± 0.029. Work on CLEHLVYCRLAS yielded a protein stability index of 0.0694 ± 0.025. With CLHFLTWVRICS the protein stability index was 0.0814 ± 0.025. With CLNPCVRWDGHV the protein stability index was 0.687 ± 0.028. In the case of CMAWLSVLKTLF, the protein stability index is reported as 0.421 ± 0.012. Sequence CRQDWMCFVYLS has a protein stability index of 0.0558 ± 0.007. Work on CVFAYSPVALRC yielded a protein stability index of 0.403 ± 0.018. Sequence CVFGFACRVLVV has a protein stability index of 0.278 ± 0.02. Sequence CYKYTYVKNNMI has a protein stability index of 0.231 ± 0.044. CYRRCQAFLVLV gave a protein stability index of 0.127 ± 0.026. In the case of DFVFFLVSVRFR, the protein stability index is reported as 0.178 ± 0.03. For DGSFCLLYMTIA, the protein stability index was 0.332 ± 0.016. DGYLFKGIWFFV showed a protein stability index of 0.163 ± 0.022. DKVTLLRRCKQY was tested, and the protein stability index was 0.206 ± 0.03. With DLRGLGRFRISH the protein stability index was 0.503 ± 0.024. For DLVGRETRMRLN, the protein stability index was 0.263 ± 0.022. With DPTLLLYPLSPL the protein stability index was 0.685 ± 0.035. DVVRWQRVRNYV was tested, and the protein stability index was 0.3 ± 0.028. In the case of EGGGGRFWVCVG, the protein stability index is reported as 0.298 ± 0.034. With EKHRRYAITKFI the protein stability index was 0.196 ± 0.058. For EKKNQTAYNKTV, the protein stability index was 0.176 ± 0.028. Sequence EKTKTKRERKIN has a protein stability index of 0.191 ± 0.015. In the case of ELNERRKRLVTN, the protein stability index is reported as 0.142 ± 0.012. ERNERKYKIKIT was tested, and the protein stability index was 0.239 ± 0.037. For ESCFGMAIFCVT, the protein stability index was 0.334 ± 0.03. ESCIFLMWLTVL showed a protein stability index of 0.0868 ± 0.012. Sequence ESFIKFALYIVN has a protein stability index of 0.358 ± 0.036. For EVVFHVFLVGLV, the protein stability index was 0.274 ± 0.013. For FALPPSLLLLSA, the protein stability index was 0.449 ± 0.016. For FCCLIGYIWYGW, the protein stability index was 0.363 ± 0.011. In the case of FCFLLLSWAFWV, the protein stability index is reported as 0.103 ± 0.026. In the case of FCFVRGLLFLFF, the protein stability index is reported as 0.36 ± 0.034. In the case of FCIYLCLSTSIT, the protein stability index is reported as 0.129 ± 0.027.

— the supplement of paper PMC10724198
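Also: PSI is a weighted mean of sequencing reads over stability bins, variants kept only with over 10 reads, mCherry proximal and sfGFP distal, peptide attached via GGGS linker.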
